Reference: the DeepSol protein solubility set

assay: soluble on expression in E. coli; label from the status in PepcDB or PDB records

Sequence	soluble on expression in E. coli
MSQHAFSPDENVHLSPKGWYRQASEKPGFIHDAAQAAAIEQLDRLWHELVDFKSKRNRFLGRSLRSPQVPRGLYFWGGVGRGKSFLMDAFYACVPYRRKRRIHFHHFMAETHRELRKFAGGKDPLLAYADQIAKATRLLCFDEFHVSDIADAMILGRLLSALLERGVVVVTTSNYAPDDLYPGGLQRQNFLPTIELIKRELDVLNVDGGHDYRLRELTREPLFMVPADAANEGKMEQLFRRVSTGAELAQKSITVLEREIAVKRMSPGVIWFDFMALCDGPRAQTDYLEIASEYHTVFLSGIPRLSAKQASIARRFTWLVDVFYDNRVKLIASADAPPEAIYTEGLQSGEFFRTASRLTEMQSKSYLELPHQSMTQSHDQPPPGVALLEHHHHHH	not soluble
MIEQCWSEIQEEQSPTSQIGQLRVQGLRDKRVIVEYIPLILKTFLLSKTSGVGPLIIPVRCFTCGKVIGDKYYEFKRRVEAGEDPEKVLDDLGLERYCCRRMLLSHVELIDDIMHYKVY	soluble
MSNVPAELKYSKEHEWLRKEADGTYTVGITEHAQELLGDMVFVDLPEVGATVSAGDDCAVAESVKAASDIYAPVSGEIVAVNDALSDSPELVNSEPYTGGWIFKIKASDESELESLLDATAYEALLEDE	not soluble
MGSSHHHHHHSSGLVPRGSPTVTPTVNRENKPTCYPKAEISRLSASQIRNLNPVFGGSGPALTGLRNLGNTCYMNSILQCLCNAPHLADYFNRNCYQDDINRSNLLGHKGEVAEEFGIIMKALWTGQYRYISPKDFKITIGKINDQFAGYSQQDSQELLLFLMDGLHEDLNKADNRKRYKEENNDHLDDFKAAEHAWQKHKQLNESIIVALFQGQFKSTVQCLTCHKKSRTFEAFMYLSLPLASTSKCTLQDCLRLFSKEEKLTDNNRFYCSHCRARRDSLKKIEIWKLPPVLLVHLKRFSYDGRWKQKLQTSVDFPLENLDLSQYVIGPKNNLKKYNLFSVSNHYGGLDGGHYTAYCKNAARQRWFKFDDHEVSDISVSSVKSSAAYILFYTSLG	soluble
MVAEVCSMPTASTVKKPFDLRSKMGKWCHHRFPCCRGSGKSNMGTSGDHDDSFMKMLRSKMGKCCRHCFPCCRGSGTSNVGTSGDHENSFMKMLRSKMGKWCCHCFPCCRGSSKSNVGAWGDYDHSAFMEPRYHVRREDLDKLHRAAWWGKVPRKDLIVMLRDTDMNKRDKEKRTALHLASANGNSEVVQLLLDRRCQLNVLDNKKRTALIKAVQCQEDECVLMLLEHGADRNIPDEYGNTALHYAIYNEDKLMAKALLLYGADIESKNKV	not soluble
MGSDKIHHHHHHMLARGKTNLKIEEIRMHKHHEIHRVKPLMPALCRIRQGKKVINWETHTLTVDNNQIILFPCGYEFYIENYPEAGLYLAEMLYLPIDLIESFQKLYTVTDQIRNKTSFFLPQNPELIYCWEQLKTSVSRGFSTKIQEHLAMGVLLSLGVNHVNHLLLSYSKQSLISRCYNLLLSEPGTKWTANKVARYLYISVSTLHRRLASEGVSFQSILDDVRLNNALSAIQTTVKPISEIARENGYKCPSRFTERFHNRFNITPREIRKASRE	not soluble
GPHMSVSESAVFAYESSVHSTNVLLSLNDQRKKDVLCDVTVLVEGQRFRAHRSVLAACSSYFHSRIVGQTDAELTVTLPEEVTVKGFEPLIQFAYTAKLILSKDNVDEVCRCVEFLSVHNIEESCFQFLKFKFLDSTS	soluble
MGSDKIHHHHHHMNPFQNSFGGHIPQDVAGKQGENVIFIVYNLTDSPDTVDKVKDVCANFSAMIRSMRNRFPDMQFSCTMGFGADAWTRLFPDKGKPKELSTFSEIKGEKYTAVSTPGDLLFHIRAKQMGLCFEFASILDEKLKGAVVSVDETHGFRYMDGKAIIGFVDGTENPAVDENPYHFAVIGEEDADFAGGSYVFVQKYIHDMVAWNALPVEQQEKVIGRHKFNDVELSDEEKPGNAHNAVTNIGDDLKIVRANMPFANTSKGEYGTYFIGYASTFSTTRRMLENMFIGSPAGNTDRLLDFSTAITGTLFFVPSYDLLGELGE	not soluble
MKIIGFACQWCAYQAADLAGSLKMKYPESIRLLRVPCSGRVNAEFILKALLSGADGVFVAGCPISECHYRSGNRIAKTKVALLKRLLPEFGLESGRVEFLQVSSADARKFVEFAKEFDERIRKLGPNPLRRDER	not soluble
MARKTTVAKVGSKGPGSTKKTIQAVRPTVRTQGAVTRSQAALRGHMGITDSSTSTSSSRIPKEKLKKKASSRSRSRSRSKSTRRSRSKSTRSRSRSRSRSRSSTRGKKRAPKKAVTTKAARSISPVKVKKTEAIKSRGSSKTARRVSAAHK	not soluble
MRLFTPEAMREADRKAVERGYPSLLLMEWAGMKAARVYLELFGKAPALVLAGKGNNGGDGLVLARHLLLEGVGVRVYAAGGQTGDALLALQALLAHGVEVRPLEEASFREGEVVVDALFGTGLKGPLTDFYAELVERVNRAGLPVLALDLPSGLPFSPHVRATATVAFAALKTPHLFQREACGKLYLAEIGLPKPLLEREDLPEVASPEALRPLLPRRPLTAHKGSVGRVGVLGGYQGEDLRYAGAPLLAALGAYRMGAGLVHLVAPEGTPLEPLEAVFHPVPSPALPPLKAEALAVGMGGGPWGRAWALKALEARLPTVLDADALHPEVAEAYRKAGVPAVLTPHAGEAGRLLGISPEEVAKDPLGAARALAERTGLAVVLKGNPTVVAEGERLSVNPTGNPALATGGTGDVLSGAIAALLAAGLRPFDAARLGVFLHGLAGDLLAEEKGVGLLAREVAEALPRARRLLQEGRVPPAFFPR	soluble
GPGSMSLKKKTFKQRIRKNDMKQRHQIGFGLRKRMGAARRIRNRYDSVDDGTRPMEMIVSEIAEGTAVPSQEAVLDPRSLTDLLLRPAESPVSNNSASASANVATTSCAVASKSNGCSSALWKRGSSKSSALLTSVPLASEKVLPSLPLAPDDPLALPDTRVFEEEERQQRLAREAAARQNENKNLYRHSGQPYLFWERVGLHPALLQALRDLHFTHPTPVQEEVLPNVLASGDEGLARQRSSEADKKSKKHKRAGGAADSAGHDVVVSAETGSGKTLVFALPILQDLLTTLDTERVSAVTPTSSAEAVHEKATGQASSDAAWRERS	soluble
MGSDKIHHHHHHLTLSIEHLTGGYTQTPVIKDINFEVKNGELLGLIGLNGAGKSTTINHVIGLMRPMKGKIILDEIDLEQNPTQYKTKLAYIPELPILYDELTLKEHIELTIKAYEMNSEKAWQQAHKLLKTFRLENKLDWFPANFSKGMRQKVMIVCAFITDAELFVVDEPFLGLDPLAIDDLLKVINEKKQQGASILMSTHVLDTAEKYCDRFALLNEGELKAVGTLADFQKQFNLPNSSLNDIYLTIAKGERDE	not soluble
MSLNQGEQLPGNYRVEIYLNGEKVDVGEFPFHRPESPEEKELVPCLTVDDLIHYGIKIDKSSSDTDNKKNQCFKWNSIEGLKVNYDFDSQRVQITVPQLYLQDKKSSLAPVSLWNEGVAAFRMVYQTNIDISKQNDNQSTTRNSRYGRFTPGFNLGAWRFRSSVTWSKELGQSERWQRGYMWFERGINAIKSRLTLGESYTSSEVFDSIPFRGGMLATDDAMTPPEDSYYTPVVHGIAQSEAQVIIKQNGQIIFTRSVPPGPFALDNLPTLAVGGELDVTVRESNGEEQYFSVPFQTPAIALHEGYFKYSVMGGNIKKKEGHHHHHH	not soluble
MKVSILDYGVIDKEKTPQEALLETRCLAQVADKLGFHRFWVAEHHNIYAFAISSPELLMMHLADHTKQIRIGSGGIMPLHYSSFKIAEWIMTLEALHPNRIDLGIGNSLGTTLVQRALSSIHCKDSYSQVVTELYQYLNPDHLSPLPIFVNPRGNTYPQIWTLSNSLETAELAGQLGLGYTFGIFPYIPKDPITEAKRVSAHYRKAFRPSKLLKIPKLILAVFIVLSDTDEKAEALAKPLDIWMLGQQDFNEFKTYPDVEEARNYHLTEKQREAIAANRSRMVIGSPHTVKKQLDRLIEACQADELLAIPLVPEFANRQRTLELLADLYVTI	not soluble
QRVKRLLSITNDKHDEYLTEMVPLLVEFAKDECHNPFIDKDGNESIPSGVLIFVAKAAQFYMTNAGLTGRSMDTVSYNFATEIPSTILKKLNPYRKMAR	soluble
MSLNAPKLVIGANGFLGSHVTRQLVADCAPQKGEVRAMVRPAANTRSIDDLPLTRFHGDVFDTATVAEAMAGCDDVYYCVVDTRAWLRDPSPLFRTNVAGLRNVLDVATDASLRRFVFTSSYATVGRRRGHVATEEDRVDTRKVTPYVRSRVAAEDLVLQYAHDAGLPAVAMCVSTTYGGGDWGRTPHGAFIAGAVFGRLPFTMRGIRLEAVGVDDAARALILAAERGRNGERYLISERMMPLQEVVRIAADEAGVPPPRWSISVPVLYALGALGSLRARLTGKDTELSLASVRMMRSEADVDHGKAVRELGWQPRPVEESIREAARFWAAMRTVGKDPAASEGHHHHHH	not soluble
MKTGDKAGAIAAAQYFVEVIEYSMHTSTTDLLEKYSYEHCDRCSHYIEVINTRQEKNVLPKSVVINSSQEGHPEFRGEGAIIWRVPMHLQISEQWEAGKEPRKEEVKVSFSVAIDNGHWVLVGVGEED	not soluble
MGSDKIHHHHHHMSKSHAVVHSALADEASQHNNTLSWFDITPADQERVRSLAPIADHVGEEIIADFYAHILRFEDAAQQFADDTQIERVKRGQKKYFQELINAELDESYAEERKRIGGIHERAGITPTLYVGSYAYYLQRLSQSILENGKEDPHKLFGLVLSMMKIAHYDMALALETYVEAREKTIEIHERQMRELPTPVLELREGLLLVPVVGALDSHRARTLTMQLLDGIRDTRSRAVVLDITGAVSIDSSVANHLFQAMTAARLMGAKSILAGISPTVAQELFRIGVDTKTFTTARNLQQGIELAASALEAHSKHSV	not soluble
MITLPTGTKIWIIAGITDMRCGFNGLASKVQNTLKDDPFSGHIFVFRGRSGKMVKILWADRDGLCLFAKRLAGDPGRESAPDASSVIHATGGDRVATSQTDRTAWHPDITRDKTRE	not soluble
MGSDKIHHHHHHMDRVQAMRVFVAVVDCGGFTRAAQQLQLPRATVSSAVQQLEAQLGARLLHRTTRRVQLTLDGGTFYERCQQLLADFDELESLFSQQGASPRGKLRIDVPGPIGRQVLAPALPEFFRLYPGIELELGVTDRPVDLIQEGVDCVIRVGALAESRLVARRIGMLPQGNYASPDYLAAFGAPASPDALAGHRAVNYASPSTGKVFAWEYLQDGERRELALQSLVSVNQVESYIACALAGLGMIQLPRYDAEPHVAAGALVEVLADWPPPAMPVSVLYPHRRHLSRRVQVFVEWAGALLRERLRLGA	not soluble
MGSDKIHHHHHHMAEFPASLLILNGKSTDNLPLREAIMLLREEGMTIHVRVTWEKGDAARYVEEARKFGVATVIAGGGDGTINEVSTALIQCEGDDIPALGILPLGTANDFATSVGIPEALDKALKLAIAGDAIAIDMAQVNKQTCFINMATGGFGTRITTETPEKLKAALGSVSYIIHGLMRMDTLQPDRCEIRGENFHWQGDALVIGIGNGRQAGGGQQLCPNALINDGLLQLRIFTGDEILPALVSTLKSDEDNPNIIEGASSWFDIQAPHDITFNLDGEPLSGQNFHIEILPAALRCRLPPDCPLLR	not soluble
GPGSMVLVLVVGDTWVPQRASGVPEVFCKMFSPGRIHKLLITGGVGSKEMYDYLRTIAPEVHCVTSSVDRQWADHMPESVVLTVEGLKLGLIHGHQVPVGDKDSLAAVQRELDVDVLVSGSTHQSKYFEFDSHLFVNPGSLSGADTEYDVNVVPSFMLLDIQDKSVVTFIYQFHPEDETGGGGTATEDLAAAGMVPGLRIKKKEWAKE	not soluble
